B1: Pituitary-specific positive transcription factor 1, residues 130 to 198; numbered along this chain, P28069 (parent)
chain: RELEKFANEFKVRRIKLGYTQTNVGEALAAVHGSEFSQTTICRFENLQLSFKNACKLKAILSKWLEEAE

Variants of: B1
Experiment: abundance fitness (aPCA) (normalised: wild type 0, dead -1); higher = more abundant; growth selection in yeast, the domain comes from the species named
Details: Homo sapiens

Abundance fitness, by site and new letter:
T20: G -0.662; R -0.941; I -0.951; P -0.942; Y -1.17; E -0.536; V -0.789; L -0.683; N -0.384; Q -0.911; C -0.871; H -1.05; S -0.044; W -1.12
V12: L -0.16; C -0.183; Q 0.16; D -0.175; A 0.173; H 0.095; K -0.071; S 0.089; I -0.002; E 0.275; W -0.56; F -0.318; R -0.101; M -0.045; Y -0.295; P -0.772
N8: M -0.027; Q 0.12; L 0.093; S 0.034; K 0.155; W -0.414; T -0.04; D -0.532; C -0.496; A 0.133; R 0.188; V -0.224; F -0.262; P -0.783; Y -0.094; I 0.024; E -0.168; G -0.336
F10: P -0.931; S -0.544; T -0.915; N -0.59; C -0.923; L -0.731; A -0.803; W -0.961; G -1.05; I -0.963; K -0.721; Q -0.434; Y -0.518; H -0.762; R -0.738; V -0.649; M -0.621
R14: C -0.79; Y -0.745; T -0.878; H -0.253; E -0.952; P -0.781; N -0.897; M -0.645; V -0.712; S -0.995; G -0.8; L -0.72; Q -0.74; D -0.725
E4: C -0.552; Y -0.604; D -0.612; R -0.229; M -0.451; V -0.072; I -0.145; L -0.579; S -0.157; A 0.043; F -0.316; T -0.249; K -0.084; P -0.898; G -0.848; Q -0.245
K16: L -0.468; V -0.812; F -0.909; G -0.559; A -0.08; M -0.365; N -0.122; C -0.121; R -0.027; S -0.365; Y -0.64; D -0.665; T -0.809; H -0.786
Y19: C -0.562; A -0.421; H -0.376; S -0.696; F -0.501; R -0.718; V -0.855; K -0.674; D -0.696; G -0.501; Q -0.149; I -0.382; W -0.283; E -0.934
E9: Y -0.72; A -0.156; R -0.645; F -0.239; K -0.323; P -0.917; S -0.213; W -0.057; L -0.246; T -0.398; V -0.65; D 0.031; C -0.714; Q -0.188; M -0.11
K5: L -0.227; T -0.21; G -0.478; F -0.46; A -0.015; H -0.135; E -0.062; Y -0.236; S -0.278; C -0.647; Q -0.172; N -0.079; R -0.117; I -0.079; W -0.596; V -0.278; D 0.048; P -1.07
R1: E -0.348; F -0.128; M -0.712; L -0.306; K 0.376; N -0.37; D -0.187; I -0.508; T -0.371; V -0.441
A7: I 0.162

Reference: the Human Domainome abundance scans (Beltran et al. 2025)
